Test results from patent US20100021456A1.

Assays:
[1] = target: IL-17RA receptor (IL-17 receptor A) on RA synoviocytes (human) (UniProt Q96F46); assay: cell-based or functional assay
[2] = target: IL-17RC receptor (IL-17 receptor C) on RA synoviocytes (human) (UniProt Q8NAC3); assay: cell-based or functional assay
Chain of UniProt Q8NAC3 (Q8NAC3 21-791): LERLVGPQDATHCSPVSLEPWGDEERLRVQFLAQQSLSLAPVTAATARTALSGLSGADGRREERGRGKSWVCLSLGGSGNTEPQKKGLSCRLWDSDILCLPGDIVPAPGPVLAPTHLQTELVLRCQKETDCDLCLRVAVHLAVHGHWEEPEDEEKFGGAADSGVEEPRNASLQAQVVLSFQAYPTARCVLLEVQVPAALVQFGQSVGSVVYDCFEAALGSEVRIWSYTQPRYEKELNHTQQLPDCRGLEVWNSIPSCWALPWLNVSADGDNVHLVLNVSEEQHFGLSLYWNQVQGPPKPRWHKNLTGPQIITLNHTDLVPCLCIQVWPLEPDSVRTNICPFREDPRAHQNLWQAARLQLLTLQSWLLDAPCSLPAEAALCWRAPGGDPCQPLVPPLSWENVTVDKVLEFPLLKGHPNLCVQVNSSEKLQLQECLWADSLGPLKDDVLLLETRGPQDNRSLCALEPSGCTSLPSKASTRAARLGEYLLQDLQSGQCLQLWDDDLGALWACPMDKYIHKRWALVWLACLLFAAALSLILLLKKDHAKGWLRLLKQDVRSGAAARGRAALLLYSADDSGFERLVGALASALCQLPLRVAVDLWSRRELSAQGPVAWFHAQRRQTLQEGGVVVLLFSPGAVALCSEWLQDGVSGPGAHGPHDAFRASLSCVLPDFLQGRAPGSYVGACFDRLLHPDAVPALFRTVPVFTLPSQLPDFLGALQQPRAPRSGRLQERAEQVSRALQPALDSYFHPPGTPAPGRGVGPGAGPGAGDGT

reduction in secreted IL-6 induced by IL-17A in the presence of TNF-α, after simultaneous IL-17RA and IL-17RC iRNAs [1]: 20%
reduction in secreted IL-6 induced by IL-17A in the presence of TNF-α, after simultaneous IL-17RA and IL-17RC iRNAs [2]: 20%
Substance: recombinant human IL-17A (R&D Systems) (from UniProt Q16552 24-155) (ligand)
